The target of data set [1] is T1, Cas9 (His-Cas9) (Streptococcus pyogenes, UniProt Q99ZW2 Q99ZW2:1-1368). The data set is described as follows: EMSA; Cas9 without guide; 250 mM NaCl, 1 mM MgCl2, tRNA. As to conditions: tags: His tag, expressed in E. coli; hairpin, 7-base loop. As for the experimental part:
(§1) The interaction between Cas9 protein and each nucleic acid aptamer having inhibitory activity was analyzed by gel shift assay. The detailed experimental conditions are as follows.
(§2) Amounts of 2 pmol of Cas9 protein and 20 pmol of each nucleic acid aptamer (s21, s21-2, s21-mm2, tetra, and St2-1SA (aptamer against streptavidin)) were incubated at normal temperature for 30 minutes in a binding buffer (20 mM Tris/HCl pH 8.0, 250 mM NaCl, 1 mM MgCl₂, 2.5% glycerol, 0.05% Tween-20, and 0.05 mg/ml tRNA). Then, the obtained product was electrophoresed on 8% acrylamide gel, and the gel was stained with SYBR Gold (Thermo Fisher Scientific Inc.), followed by analysis with Bio-Rad ChemiDoc XRS image analysis system (Bio-Rad Laboratories, Inc.). The sequence of St2-1SA is as described below (Table 13).

Data set [2] has as its target T1, Cas9 (His-Cas9). The data set is described as follows: EMSA; no complex band; 250 mM NaCl, 1 mM MgCl2, tRNA. The settings on record: tags: His tag, expressed in E. coli; hairpin. How it is done: as §1, §2
(In EMSA bound probe runs differently from free probe, usually more slowly.)

Data set [3] deals with T1, Cas9 (His-Cas9). The data set is described as follows: EMSA; negative control; no complex band. As to conditions: tags: His tag, expressed in E. coli. How it is done: as §1, §2
The target in data set [4] is T1, Cas9 (His-Cas9). Put plainly: SPR; 5'-biotin s21 immobilized; Cas9 without guide; 20 mM Tris pH 8.0, 150 mM NaCl, 1 mM MgCl2. The settings on record: tags: His tag, expressed in E. coli; hairpin (stem-loop). As for the experimental part: In order to calculate the dissociation constant (Kd) between Cas9 protein and each nucleic acid aptamer, surface plasmon resonance analysis was conducted. The detailed experimental approach was as follows.
5′-Biotinylated s21 was prepared and was immobilized on a streptavidin sensor chip (GE Healthcare Japan Corp.). Then, different concentrations (2.5 nM, 5 nM, 10 nM, and 20 nM) of Cas9 protein were loaded in a running buffer (20 mM Tris/HCl pH 8.0, 150 mM NaCl, 1 mM MgCl₂, and 0.005% Tween-20) to obtain sensorgrams. Kd was calculated with Biacore evaluation software package (GE Healthcare Japan Corp., Ver 2.0). Tetra was used as a control to conduct a similar test.
A general note: In SPR one partner is held on a chip, and binding of the other changes the refractive index at the surface.

T1 sequence (Q99ZW2 whole entry, one chain of several): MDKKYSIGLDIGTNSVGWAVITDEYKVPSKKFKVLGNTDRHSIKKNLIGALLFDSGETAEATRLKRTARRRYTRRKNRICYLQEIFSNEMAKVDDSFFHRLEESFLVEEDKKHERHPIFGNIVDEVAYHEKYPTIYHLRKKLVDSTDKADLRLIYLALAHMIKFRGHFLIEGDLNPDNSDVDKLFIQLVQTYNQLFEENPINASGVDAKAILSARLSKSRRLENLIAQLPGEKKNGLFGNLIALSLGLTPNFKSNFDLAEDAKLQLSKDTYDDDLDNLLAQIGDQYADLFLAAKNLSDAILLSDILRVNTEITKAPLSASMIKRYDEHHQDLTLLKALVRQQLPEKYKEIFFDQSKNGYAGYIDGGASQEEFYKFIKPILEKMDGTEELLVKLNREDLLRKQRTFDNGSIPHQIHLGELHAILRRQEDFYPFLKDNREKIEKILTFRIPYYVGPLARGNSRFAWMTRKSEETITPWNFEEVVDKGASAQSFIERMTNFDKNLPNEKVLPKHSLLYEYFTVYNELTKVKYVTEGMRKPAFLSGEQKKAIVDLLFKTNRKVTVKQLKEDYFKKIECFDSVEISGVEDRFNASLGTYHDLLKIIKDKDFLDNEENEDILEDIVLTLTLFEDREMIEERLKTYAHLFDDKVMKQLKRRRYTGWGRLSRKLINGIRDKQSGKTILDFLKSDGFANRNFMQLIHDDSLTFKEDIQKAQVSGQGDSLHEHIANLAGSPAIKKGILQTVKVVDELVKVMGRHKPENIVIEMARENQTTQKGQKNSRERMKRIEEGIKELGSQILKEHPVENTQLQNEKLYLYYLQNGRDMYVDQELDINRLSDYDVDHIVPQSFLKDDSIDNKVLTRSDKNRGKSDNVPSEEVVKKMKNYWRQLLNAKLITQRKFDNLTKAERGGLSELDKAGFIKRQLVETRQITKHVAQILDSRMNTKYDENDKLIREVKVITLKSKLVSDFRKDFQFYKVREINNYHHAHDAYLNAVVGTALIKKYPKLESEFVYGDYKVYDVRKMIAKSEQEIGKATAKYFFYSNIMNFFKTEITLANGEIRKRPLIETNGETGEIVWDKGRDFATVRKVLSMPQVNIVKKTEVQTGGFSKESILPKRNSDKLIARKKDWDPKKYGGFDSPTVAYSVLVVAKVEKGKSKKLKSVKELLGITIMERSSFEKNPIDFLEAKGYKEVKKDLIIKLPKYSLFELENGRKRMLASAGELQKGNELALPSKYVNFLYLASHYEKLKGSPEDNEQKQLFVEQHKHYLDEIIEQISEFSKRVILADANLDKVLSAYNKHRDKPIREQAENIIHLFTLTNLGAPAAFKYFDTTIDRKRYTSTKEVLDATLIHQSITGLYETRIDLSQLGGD

For GAGGCTCTCACATCGCGCCTTTCGGTGTGAGAGCCTC (ssDNA) [s21-2], in data set [1], the binding result is given as “binds”.

For the molecule GAGGCTCTCACAGCGCGCCTTTCGTTGTGAGAGCCTC (ssDNA) [s21-2mm2], the binding result in data set [2] is recorded as “no binding”.

As to ATTGACCGCTGTGTGACGCAACACTCAAT (ssDNA) [St2-1SA (streptavidin aptamer)], the binding result in data set [3] was “no binding”.

By Kd is commonly meant the equilibrium constant for the complex coming apart. The low end stands for tighter binding, the high end for weaker binding. For GAGGCTCTCACATCGCGCCTTTCCCCAGCTTTCGGTGTGAGAGCCTC (ssDNA) [s21], in data set [4], the Kd turned out to be 0.57 nM.

Source of the values: patent publication US20200255836, “NUCLEIC ACID APTAMER FOR INHIBITING ACTIVITY OF GENOME-EDITING ENZYME” (NATIONAL INSTITUTE OF ADVANCED INDUSTRIAL SCIENCE AND …, published 2020).
